Measured values from patent US20230416785A1, “NUCLEASE AND APPLICATION THEREOF” (CRISP-HR Therapeutics, Inc., priority 2020, published 2023).
Entries after “also recorded” stand apart in the source; their conditions may differ.

Legend:
A549 cells = experiment: Cellular toxicity / viability of transfected A549 cells (resazurin assay); type: cell-based
Description: A549 cells were chosen as they are both facile to grow and transfect, cost effective in terms of media and other reagents, and importantly have retained a functional p53 gene.
Cells were then allowed to recover for one additional day, after which viability was cells were incubated with resazurin (Millipore Sigma) for 4 hours, after which fluorescence was quantified by a plate reader (Perkin Elmer).
Unless otherwise noted, adherent cells (A549 or H1299) were seeded in 96 well plates and grown in either 50/50 F-12/DMEM or RPMI-1640 respectively, supplemented with 5% FBS and grown to roughly 70% confluency. Cells were then transfected with either Cal-Phos as described in Chen 2012 or Lipofectamine 3000 (Thermofisher). Fresh media was exchanged the next day and cellular viability was quantified on day 2.
(§1) 20 μL of 0.15 mg/mL Resazurin solution was added to cells either plated in 96 well plates for all cell lines, which were then incubated for ˜4 hours at 37° C. Cellular toxicity was quantified using a Tecan SpectraFlour Plus plate reader (Tecan) using a 535/595 filter set. Raw data was then normalized to the mean of the untransfected controls and plotted as described.
as §1, with “described. […] Stats: All two-sided students T-test with unequal variance.” for “described.”

HBB amplicon = experiment: In-vitro exonuclease assay with purified proteins; type: biochemical, human; conditions: 30 nM protein, 3 nM HBB amplicon, 37° C., 60 minutes
Description: Reactions were then electrophoresed and visualized on an agarose gel. FIG. 5C illustrates quantification of exonuclease activity. Quantification of exonuclease activity assayed in FIG. 5B. 3 replicates were performed for each reaction and were quantified via FIJI (ImageJ) and then normalized to control amplicon levels.
Reactions were then electrophoresed and visualized on an agarose gel.
DNA was isolated from wildtype K562 cells, and amplified using standard Taq DNA polymerase and HBB-out-F (5′-[…]-3′ (SEQ ID NO: 125)) and HBB-out-R (5′-[…]-3′ (SEQ ID NO: 126)), Tm=56 for 35 cycles, and purified using the Qiagen PCR cleanup kit. […] The samples were then electrophoresed on a standard 1% TAE agarose gel stained with gel green.

U2OS cells = experiment: RPA foci quantification in U2OS cells; type: cell-based, human
Description: After two days cells, cells were prepared for imaging as in Murkherjee et al 2015. Cytoplasm was extracted via two sequential 10 minute washes on ice consisting of Extraction Buffer 1: 10 mM PIPES, pH 7.0; 100 mM NaCl; 300 mM Sucrose; 3 mM MgCl2; 1 mM EGTA, 0.5% Triton X-100 and Extraction Buffer 2: 10 mM Tris-HCl, pH 7.5; 10 mM NaCl; 3 mM MgCl2, 1% Tween 40, 0.5% sodium deoxycholate. Cells were then fixed using 4% PFA for 20 minutes at RT, then washed three times with PBST, blocked in 5% goat-serum for 30 minutes at RT, then incubated overnight at 4° C. with 1:1000 dilution of mouse anti-RPA (Calbiochem; Catalog no: NA191). Next day cells were washed 5× with PBST with 20 minutes per wash, then incubated overnight at 4° C. with a 1:1000 dilution of anti-mouse Alexa fluor 568 (Thermo Fisher). Cells were washed next day cells were washed 5× with PBST with 20 minutes per wash, then mounted in Vectashield with DAPI (Vector Labs; Catalog no: H-1200), and imaged at 10× using an Leica Stellaris Confocal Microscope. Foci per cell were quantified using a custom script to identify number of RPA foci per cell. […] After two days cells were fixed, then cytoplasm extracted on ice, then remaining nuclei were stained for RPA. At the end of staining, nuclei were labeled with DAPI and cells were imaged via confocal microscopy. Post-imaging nuclei identification and RPA thresholding allowed quantification of the number of RPA foci per nuclei.

CHO-SHS-1.2 = experiment: CHO cell Cas9-HR8 stable knock-in, anti-Cas9 western blot; type: cell-based; conditions: CHO cells; CHO-SHS-1.2-G1; Puromycin 10 days, then 12 days without
Description: CHO-Freestyle Cells (Invitrogen) were grown to ˜70% confluency, after which were transfected using the Neon (Thermo) transfection system and 250 ng of Cas9-HR8, 250 ng of either CHO-SHS-1.2-G1, and 50 ng CHO-SHS-1.2-pCAG-Cas9-HR8-IRES-PuroR RT. Cells were allowed to recover for two days, then treated with […] Puromycin for 10 days, after which Puromycin selection was removed. Cells were grown for an additional 12 days, after which cells split and half were frozen, while the other half was treated with RIPA buffer (Santa-Cruz) to extract protein, with non-transfected control CHO cells protein also extracted via RIPA buffer. Lysate was normalized and 7.5 ug total protein was loaded onto a 4-12% Bis-Tris Acrylamide gel (Invitrogen), and transferred to nitrocellulose using BioRad blotting and transfer system (BioRad). Membrane was washed 3× with 1×PBST (BioRad), blocked for 10 minutes using EveryBlot blocking solution (BioRad), and incubated for 1 hr at RT with a 1:1000 dilution of mouse anti-Cas9 (SantaCruz). Membrane was washed 5× for 5 minutes each in PBST, then incubated for an hour with 1:1000 rabbit anti-mouse-HRP secondary antibody for 1 hr at RT. Membrane was then washed 5× for 5 minutes each in PBST, after which a 1× NC/DAB (ThermoFisher) solution was used to visualize bands. FIG. 22A illustrates an exemplary diagram showing CHO cell Cas9-HR8 stable knock-in protocol. […]

[1] = SHS-231, hH2B-G4 or B-Catenin1, vs non-treated control cells

Substance: Cas9-HR 8: hExo1(1-352)-Cas9 fusion of FIG. 1A; E. coli codon optimized vectors SEQ ID NO: 68 and 69
- cellular viability relative to Cas9 (A549 cells; Cadherin1 G1 or G2, Day 2 post transfection): significant increases in cellular viability
- cellular toxicity compared to Cas9 (A549 cells; H2B-G4 guide, lipofectamine 3000): significant reduction in cellular toxicity
- cellular toxicity (A549 cells; Int-G2 and Int-G3, CalPhos): dramatic reduction in cellular toxicity
- cellular viability relative to Cas9 (A549 cells; SHS-231 G1, G2 or G3, Day 2 post transfection): significant increases in cellular viability
- exonuclease activity (reduction of full length HBB amplicon) (HBB amplicon): significant reduction in the full length HBB amplicon; also recorded: significant exonuclease activity
- percent cells with 1-10 RPA foci (U2OS cells; [1]): increased the percentage of cells with RPA foci
- percent cells with any RPA foci (U2OS cells; [1]): increased the percentage of cells with RPA foci
- percent cells with 11-100 RPA foci compared to Cas9 (U2OS cells; targeting hH2B and Beta-Catenin1): significant decrease in cells with 11-100 RPA foci
- stable knock-in of Cas9-HR8 repair template (over 8 kb), anti-Cas9 western blot (CHO-SHS-1.2): stably integrated Cas9-HR8
